Reference: patent US20220306695A1, “COMPSTATIN ANALOGUES AND THEIR MEDICAL USES” (priority 2019, published 2022)
Starred links: 1 amine or outer side, 2 acyl side, 3 side chain; linkers in the order of their positions; H or OH if unused. Positions of bridges follow the written chain, without caps; N, C: chain ends. Non-standard residues stand in square brackets, D forms with d. Groups on a side chain read outwards from the residue. *: point of attachment. Trp(1-Me) = Cn1cc(C[C@H](N)C(=O)O)c2ccccc21; C18 diacid = O=C(O)CCCCCCCCCCCCCCCCC(=O)*; C16 diacid = O=C(O)CCCCCCCCCCCCCCC(=O)*; γGlu = O=C(O)[C@H](CCC(=O)[*:2])N[*:1]; AEEA = NCCOCCOCC(=O)O; Sar = CNCC(=O)O

B1: Compound 134 (peptide)
peptide: Ac-EFCI[Trp(1-Me)]QDWGEHRCEGEK([γGlu-Gly-γGlu-C18 diacid])-NH2
modifications: disulfide 3-13
SMILES: CC[C@H](C)[C@@H]1NC(=O)[C@@H](NC(=O)[C@H](Cc2ccccc2)NC(=O)[C@H](CCC(=O)O)NC(C)=O)CSSC[C@@H](C(=O)N[C@@H](CCC(=O)O)C(=O)NCC(=O)N[C@@H](CCC(=O)O)C(=O)N[C@@H](CCCCNC(=O)CC[C@H](NC(=O)CNC(=O)CC[C@H](NC(=O)CCCCCCCCCCCCCCCCC(=O)O)C(=O)O)C(=O)O)C(N)=O)NC(=O)[C@H](CCCNC(=N)N)NC(=O)[C@H](Cc2c[nH]cn2)NC(=O)[C@H](CCC(=O)O)NC(=O)CNC(=O)[C@H](Cc2c[nH]c3ccccc23)NC(=O)[C@H](CC(=O)O)NC(=O)[C@H](CCC(N)=O)NC(=O)[C@H](Cc2cn(C)c3ccccc23)NC1=O
B2: Compound 131 (peptide)
peptide: Ac-SEFCI[Trp(1-Me)]QDWGEHRCTEGEGGGK([γGlu-Gly-γGlu-C16 diacid])-NH2
modifications: disulfide 4-14
SMILES: CC[C@H](C)[C@@H]1NC(=O)[C@@H](NC(=O)[C@H](Cc2ccccc2)NC(=O)[C@H](CCC(=O)O)NC(=O)[C@H](CO)NC(C)=O)CSSC[C@@H](C(=O)N[C@H](C(=O)N[C@@H](CCC(=O)O)C(=O)NCC(=O)N[C@@H](CCC(=O)O)C(=O)NCC(=O)NCC(=O)NCC(=O)N[C@@H](CCCCNC(=O)CC[C@H](NC(=O)CNC(=O)CC[C@H](NC(=O)CCCCCCCCCCCCCCC(=O)O)C(=O)O)C(=O)O)C(N)=O)[C@@H](C)O)NC(=O)[C@H](CCCNC(=N)N)NC(=O)[C@H](Cc2c[nH]cn2)NC(=O)[C@H](CCC(=O)O)NC(=O)CNC(=O)[C@H](Cc2c[nH]c3ccccc23)NC(=O)[C@H](CC(=O)O)NC(=O)[C@H](CCC(N)=O)NC(=O)[C@H](Cc2cn(C)c3ccccc23)NC1=O
B3: Compound 113 (peptide)
peptide: Ac-ASGEYCI[Trp(1-Me)]QDWGEHRC[Sar]EGEK([γGlu-Gly-γGlu-C18 diacid])-NH2
modifications: disulfide 6-16
SMILES: CC[C@H](C)[C@@H]1NC(=O)[C@@H](NC(=O)[C@H](Cc2ccc(O)cc2)NC(=O)[C@H](CCC(=O)O)NC(=O)CNC(=O)[C@H](CO)NC(=O)[C@H](C)NC(C)=O)CSSC[C@@H](C(=O)N(C)CC(=O)N[C@@H](CCC(=O)O)C(=O)NCC(=O)N[C@@H](CCC(=O)O)C(=O)N[C@@H](CCCCNC(=O)CC[C@H](NC(=O)CNC(=O)CC[C@H](NC(=O)CCCCCCCCCCCCCCCCC(=O)O)C(=O)O)C(=O)O)C(N)=O)NC(=O)[C@H](CCCNC(=N)N)NC(=O)[C@H](Cc2c[nH]cn2)NC(=O)[C@H](CCC(=O)O)NC(=O)CNC(=O)[C@H](Cc2c[nH]c3ccccc23)NC(=O)[C@H](CC(=O)O)NC(=O)[C@H](CCC(N)=O)NC(=O)[C@H](Cc2cn(C)c3ccccc23)NC1=O
B4: Compound 114 (peptide)
peptide: Ac-SEYCI[Trp(1-Me)]QDWGEHRC[Sar]EGEK([γGlu-Gly-γGlu-C18 diacid])-NH2
modifications: disulfide 4-14
SMILES: CC[C@H](C)[C@@H]1NC(=O)[C@@H](NC(=O)[C@H](Cc2ccc(O)cc2)NC(=O)[C@H](CCC(=O)O)NC(=O)[C@H](CO)NC(C)=O)CSSC[C@@H](C(=O)N(C)CC(=O)N[C@@H](CCC(=O)O)C(=O)NCC(=O)N[C@@H](CCC(=O)O)C(=O)N[C@@H](CCCCNC(=O)CC[C@H](NC(=O)CNC(=O)CC[C@H](NC(=O)CCCCCCCCCCCCCCCCC(=O)O)C(=O)O)C(=O)O)C(N)=O)NC(=O)[C@H](CCCNC(=N)N)NC(=O)[C@H](Cc2c[nH]cn2)NC(=O)[C@H](CCC(=O)O)NC(=O)CNC(=O)[C@H](Cc2c[nH]c3ccccc23)NC(=O)[C@H](CC(=O)O)NC(=O)[C@H](CCC(N)=O)NC(=O)[C@H](Cc2cn(C)c3ccccc23)NC1=O
B5: Compound 133 (peptide)
peptide: Ac-SEFCI[Trp(1-Me)]QDWGEHRCTEK[γGlu]GGGK([γGlu-Gly-γGlu-C18 diacid])-NH2
modifications: disulfide 4-14
SMILES: CC[C@H](C)[C@@H]1NC(=O)[C@@H](NC(=O)[C@H](Cc2ccccc2)NC(=O)[C@H](CCC(=O)O)NC(=O)[C@H](CO)NC(C)=O)CSSC[C@@H](C(=O)N[C@H](C(=O)N[C@@H](CCC(=O)O)C(=O)N[C@@H](CCCCN)C(=O)N[C@@H](CCC(=O)NCC(=O)NCC(=O)NCC(=O)N[C@@H](CCCCNC(=O)CC[C@H](NC(=O)CNC(=O)CC[C@H](NC(=O)CCCCCCCCCCCCCCCCC(=O)O)C(=O)O)C(=O)O)C(N)=O)C(=O)O)[C@@H](C)O)NC(=O)[C@H](CCCNC(=N)N)NC(=O)[C@H](Cc2c[nH]cn2)NC(=O)[C@H](CCC(=O)O)NC(=O)CNC(=O)[C@H](Cc2c[nH]c3ccccc23)NC(=O)[C@H](CC(=O)O)NC(=O)[C@H](CCC(N)=O)NC(=O)[C@H](Cc2cn(C)c3ccccc23)NC1=O
B6: Compound 115 (peptide)
peptide: Ac-SEYCI[Trp(1-Me)]QDWGEHRC[Sar]EGKK([γGlu-Gly-γGlu-C18 diacid])-NH2
modifications: disulfide 4-14
SMILES: CC[C@H](C)[C@@H]1NC(=O)[C@@H](NC(=O)[C@H](Cc2ccc(O)cc2)NC(=O)[C@H](CCC(=O)O)NC(=O)[C@H](CO)NC(C)=O)CSSC[C@@H](C(=O)N(C)CC(=O)N[C@@H](CCC(=O)O)C(=O)NCC(=O)N[C@@H](CCCCN)C(=O)N[C@@H](CCCCNC(=O)CC[C@H](NC(=O)CNC(=O)CC[C@H](NC(=O)CCCCCCCCCCCCCCCCC(=O)O)C(=O)O)C(=O)O)C(N)=O)NC(=O)[C@H](CCCNC(=N)N)NC(=O)[C@H](Cc2c[nH]cn2)NC(=O)[C@H](CCC(=O)O)NC(=O)CNC(=O)[C@H](Cc2c[nH]c3ccccc23)NC(=O)[C@H](CC(=O)O)NC(=O)[C@H](CCC(N)=O)NC(=O)[C@H](Cc2cn(C)c3ccccc23)NC1=O
B7: Compound 129 (peptide)
peptide: Ac-SEFCI[Trp(1-Me)]QDWGEHRC[Sar]EGEGGGK([γGlu-Gly-γGlu-C18 diacid])-NH2
modifications: disulfide 4-14
SMILES: CC[C@H](C)[C@@H]1NC(=O)[C@@H](NC(=O)[C@H](Cc2ccccc2)NC(=O)[C@H](CCC(=O)O)NC(=O)[C@H](CO)NC(C)=O)CSSC[C@@H](C(=O)N(C)CC(=O)N[C@@H](CCC(=O)O)C(=O)NCC(=O)N[C@@H](CCC(=O)O)C(=O)NCC(=O)NCC(=O)NCC(=O)N[C@@H](CCCCNC(=O)CC[C@H](NC(=O)CNC(=O)CC[C@H](NC(=O)CCCCCCCCCCCCCCCCC(=O)O)C(=O)O)C(=O)O)C(N)=O)NC(=O)[C@H](CCCNC(=N)N)NC(=O)[C@H](Cc2c[nH]cn2)NC(=O)[C@H](CCC(=O)O)NC(=O)CNC(=O)[C@H](Cc2c[nH]c3ccccc23)NC(=O)[C@H](CC(=O)O)NC(=O)[C@H](CCC(N)=O)NC(=O)[C@H](Cc2cn(C)c3ccccc23)NC1=O
B8: Compound 132 (peptide)
peptide: Ac-SEFCI[Trp(1-Me)]QDWGEHRC[Sar]EK[γGlu]GGGK([γGlu-Gly-γGlu-C18 diacid])-NH2
modifications: disulfide 4-14
SMILES: CC[C@H](C)[C@@H]1NC(=O)[C@@H](NC(=O)[C@H](Cc2ccccc2)NC(=O)[C@H](CCC(=O)O)NC(=O)[C@H](CO)NC(C)=O)CSSC[C@@H](C(=O)N(C)CC(=O)N[C@@H](CCC(=O)O)C(=O)N[C@@H](CCCCN)C(=O)N[C@@H](CCC(=O)NCC(=O)NCC(=O)NCC(=O)N[C@@H](CCCCNC(=O)CC[C@H](NC(=O)CNC(=O)CC[C@H](NC(=O)CCCCCCCCCCCCCCCCC(=O)O)C(=O)O)C(=O)O)C(N)=O)C(=O)O)NC(=O)[C@H](CCCNC(=N)N)NC(=O)[C@H](Cc2c[nH]cn2)NC(=O)[C@H](CCC(=O)O)NC(=O)CNC(=O)[C@H](Cc2c[nH]c3ccccc23)NC(=O)[C@H](CC(=O)O)NC(=O)[C@H](CCC(N)=O)NC(=O)[C@H](Cc2cn(C)c3ccccc23)NC1=O
B9: Compound 143 (peptide)
peptide: Ac-SEFCI[Trp(1-Me)]QDWGEHRC[Sar]EGE[AEEA][AEEA][AEEA]K([γGlu-Gly-γGlu-C18 diacid])-NH2
modifications: disulfide 4-14
SMILES: CC[C@H](C)[C@@H]1NC(=O)[C@@H](NC(=O)[C@H](Cc2ccccc2)NC(=O)[C@H](CCC(=O)O)NC(=O)[C@H](CO)NC(C)=O)CSSC[C@@H](C(=O)N(C)CC(=O)N[C@@H](CCC(=O)O)C(=O)NCC(=O)N[C@@H](CCC(=O)O)C(=O)NCCOCCOCC(=O)NCCOCCOCC(=O)NCCOCCOCC(=O)N[C@@H](CCCCNC(=O)CC[C@H](NC(=O)CNC(=O)CC[C@H](NC(=O)CCCCCCCCCCCCCCCCC(=O)O)C(=O)O)C(=O)O)C(N)=O)NC(=O)[C@H](CCCNC(=N)N)NC(=O)[C@H](Cc2c[nH]cn2)NC(=O)[C@H](CCC(=O)O)NC(=O)CNC(=O)[C@H](Cc2c[nH]c3ccccc23)NC(=O)[C@H](CC(=O)O)NC(=O)[C@H](CCC(N)=O)NC(=O)[C@H](Cc2cn(C)c3ccccc23)NC1=O

biological target: Human C3 (human, UniProt P01024 23-1663); test: cell-based or functional assay
Sequence (P01024 23-1663 limits assumed): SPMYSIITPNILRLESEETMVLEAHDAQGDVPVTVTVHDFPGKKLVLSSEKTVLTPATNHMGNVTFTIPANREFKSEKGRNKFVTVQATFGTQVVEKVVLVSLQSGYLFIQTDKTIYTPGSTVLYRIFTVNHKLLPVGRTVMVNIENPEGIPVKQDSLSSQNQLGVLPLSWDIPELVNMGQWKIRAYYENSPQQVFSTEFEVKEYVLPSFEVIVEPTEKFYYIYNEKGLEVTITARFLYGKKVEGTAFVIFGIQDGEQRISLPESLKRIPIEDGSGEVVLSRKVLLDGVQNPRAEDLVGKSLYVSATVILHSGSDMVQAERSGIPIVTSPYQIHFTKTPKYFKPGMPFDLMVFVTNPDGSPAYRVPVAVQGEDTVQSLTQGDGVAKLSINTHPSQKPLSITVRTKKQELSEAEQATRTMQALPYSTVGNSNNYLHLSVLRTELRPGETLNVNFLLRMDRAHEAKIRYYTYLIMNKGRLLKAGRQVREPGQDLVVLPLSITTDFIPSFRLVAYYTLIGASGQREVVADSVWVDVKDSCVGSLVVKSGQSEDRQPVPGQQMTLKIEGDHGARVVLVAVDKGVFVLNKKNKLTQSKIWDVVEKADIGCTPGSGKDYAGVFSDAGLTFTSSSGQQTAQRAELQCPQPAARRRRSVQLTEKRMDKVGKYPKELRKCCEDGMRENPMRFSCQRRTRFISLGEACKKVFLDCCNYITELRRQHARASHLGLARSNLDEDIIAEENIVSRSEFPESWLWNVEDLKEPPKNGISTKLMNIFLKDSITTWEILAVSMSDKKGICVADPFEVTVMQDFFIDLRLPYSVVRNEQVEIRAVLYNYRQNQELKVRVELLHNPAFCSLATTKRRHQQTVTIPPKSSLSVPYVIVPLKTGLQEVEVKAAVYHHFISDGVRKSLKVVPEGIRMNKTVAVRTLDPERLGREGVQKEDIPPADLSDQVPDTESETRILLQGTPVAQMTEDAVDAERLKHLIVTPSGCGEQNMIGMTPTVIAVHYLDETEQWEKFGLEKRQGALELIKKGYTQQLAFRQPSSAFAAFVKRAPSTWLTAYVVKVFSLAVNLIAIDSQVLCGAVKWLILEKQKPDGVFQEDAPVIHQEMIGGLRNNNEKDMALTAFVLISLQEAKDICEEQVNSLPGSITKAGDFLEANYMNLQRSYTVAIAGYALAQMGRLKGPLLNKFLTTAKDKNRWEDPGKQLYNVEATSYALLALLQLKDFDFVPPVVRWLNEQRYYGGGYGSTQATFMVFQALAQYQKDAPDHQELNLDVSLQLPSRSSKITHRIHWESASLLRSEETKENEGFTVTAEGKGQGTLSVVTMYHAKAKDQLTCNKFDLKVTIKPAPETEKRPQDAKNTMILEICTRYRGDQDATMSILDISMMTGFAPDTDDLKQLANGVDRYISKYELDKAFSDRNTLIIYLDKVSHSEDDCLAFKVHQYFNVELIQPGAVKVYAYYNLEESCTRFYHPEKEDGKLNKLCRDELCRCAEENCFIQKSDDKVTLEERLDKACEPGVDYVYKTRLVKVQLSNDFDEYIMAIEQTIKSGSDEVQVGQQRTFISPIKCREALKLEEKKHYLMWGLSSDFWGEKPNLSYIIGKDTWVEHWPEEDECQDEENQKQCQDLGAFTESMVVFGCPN

B1 and B2 cannot be ordered by IC50[nM], inhibition of hemolysis: less than 100 nM for the first, less than 100 nM for the second.

Ac-SEFCI[Trp(1-Me)]QDWGEHRCTGAESK([γGlu-Gly-γGlu-15‑carboxy‑hexadecanoyl])-NH2 (disulfide 4-14) [Compound 135] and B3 cannot be ordered by IC50[nM], inhibition of hemolysis: less than 100 nM for the first, less than 500 nM for the second.

B4 and B5 cannot be ordered by IC50[nM], inhibition of hemolysis: less than 500 nM for the first, less than 100 nM for the second.

Ac-SEFCI[Trp(1-Me)]QDWGEHRCTEGE[8‑aminooctanoyl]K([γGlu-Gly-γGlu-C18 diacid])-NH2 (disulfide 4-14) [Compound 136] and Ac-SEFCI[Trp(1-Me)]QDWGEHRC[Sar]EGE[AEEA]K([γGlu-Gly-γGlu-C18 diacid])-NH2 (disulfide 4-14) [Compound 138] cannot be ordered by IC50[nM], inhibition of hemolysis: less than 100 nM for the first, less than 100 nM for the second.

B6 and Ac-SEYCI[Trp(1-Me)]QDWGEHRC[Sar]EGEK([γGlu-Lys-γGlu-C18 diacid])-NH2 (disulfide 4-14) [Compound 116] cannot be ordered by IC50[nM], inhibition of hemolysis: less than 250 nM for the first, less than 500 nM for the second.

B7 and B8 cannot be ordered by IC50[nM], inhibition of hemolysis: less than 100 nM for the first, less than 100 nM for the second.

Ac-SEFCI[Trp(1-Me)]QDWGEHRCTEGE[8‑aminooctanoyl]EK([γGlu-Gly-γGlu-C18 diacid])-NH2 (disulfide 4-14) [Compound 137] and B9 cannot be ordered by IC50[nM], inhibition of hemolysis: less than 100 nM for the first, less than 100 nM for the second.
